Data set [1] deals with the molecule itself. Kind of data set: X-ray crystallography; self-association of protomers (homo-dimer). The procedure: (§1) 19 designs were chosen to undergo crystallization screens. Each design was expressed as described above in 0.5 L cultures. […] Following SEC, 2 mM of NiCl₂ was added and the solution was incubated overnight at 37° C. Following cleavage, the solutions containing the cleaved protein products were incubated with 1 mL Ni-NTA resin to bind any uncleaved product, and the flow through was collected. Following SEC into Crystallization buffer (20 mM Tris, 50 mM NaCl, pH 8.0), each sample was concentrated to approximately 15 mg mL⁻¹. The following sitting drop broad screens were set up at room temperature with three protein:crystallization condition ratios (1:1, 1:2, 2:1) using the mosquito pipetting instrument (sptlabtech): Midas™ (Molecular Dimensions), Proplex™ (Molecular Dimensions), JCSG+™ (Molecular Dimensions), Morpheus™ (Molecular Dimensions), Pact Premier™ (Molecular Dimensions), LMB™ (Molecular Dimensions), Index™ (Hampton Research) and PGA™ (Molecular Dimensions). Each was monitored weekly for crystal growth using the JANSi UVEX imaging system.
Where required, crystals were cryoprotected with 20% glycerol or 25% ethylene glycol prior to flash freezing in liquid nitrogen. Data collection was done using the Advanced Photon Source synchrotron. Images were integrated using XDS 20220110 (37). Aimless (38) was used for scaling and merging. […]

Data set [2] concerns the molecule itself. Kind of data set: negative stain EM, 2D class averages and 3D maps; self-association of protomers (pentamer). Here is the method:
(§2) Next, we selected three designs: one C15 homo-pentamer (HALC5-15_262), one C18 homo-hexamer (HALC6-18_265) and one C33 homo-trimer (HALC3-33_343) for high-resolution single particle cryoEM characterization.
(§3) SEC fractions corresponding to the designs were concentrated in TBS prior to negative stain EM screening. Samples were then immediately diluted 5 to 150 times in TBS buffer (25 mM Tris, 100 mM NaCl, pH 8.0) depending on the concentration of the samples. A final volume of 5 μL was applied on negatively glow discharged, carbon-coated 400-mesh copper grids (01844-F, TedPella Inc.), then washed with Milli-Q Water and stained using 0.75% uranyl formate as previously described (44). Air-dried grids were then imaged on either a FEI Talos™ L120C TEM (FEI Thermo Scientific) equipped with a 4K×4K Gatan OneView™ camera at a magnification of 57,000× and pixel size of 2.5 Å. Micrographs collection was automated using EPU™ software (FEI Thermo Scientific) and were imported into CisTEM™ software (45) or cryoSPARC™ software (46, 47). CTF estimation was done with CTFFIND4 and a circular blob picker was used to select particles which were then subjected to 2D classification. Ab initio reconstruction and homogeneous refinement in Cn symmetry were used to generate 3D electron density maps. All EM maps can be found in supplementary data.

Data set [3] deals with the molecule itself. The experiment in a line: single particle cryoEM; self-association of protomers.
Experimental: The designs were relaxed into experimental cryoEM electron densities using Rosetta FastRelax and SetupForDensityScoring.
For some samples, multiple blots were applied in order to obtain the best particle density. All grids were blotted using a blot force of 0 and 5.5 second blot time at 100% humidity and 4° C. and plunge-frozen in liquid ethane using a Vitrobot™ Mark IV (FEI Thermo Scientific). All cryoEM grids were screened on a Glacios™ transmission electron microscope (FEI Thermo Scientific) operated at 200 kV and equipped with a Gatan K2 or K3 Summit direct detector. […] Movies were acquired in counting mode fractionated in 50 frames of 200 ms at 8.5 e-/pixel/sec for a total dose of ˜65e-/Å².
Data set [4] deals with the molecule itself. The experiment in a line: X-ray crystal structure; self-association of protomers. The procedure:
as §1
Where required, crystals were cryoprotected with 20% glycerol or 25% ethylene glycol prior to flash freezing in liquid nitrogen. Data collection was done using the Advanced Photon Source synchrotron. Images were integrated using XDS 20220110 (37). Aimless (38) was used for scaling and merging. Phaser™ 2.8 (39) was used for molecular replacement using the design models as search models (either monomer or oligomeric complex). Models were built using Coot 0.9.8 (40) and refined with Phenix ™ refine from Phenix™ 1.20 (41) and RefMac™ (42) from CCP4 7.1 (38) suite. All structures were validated using MolProbity™ 4.5.1(43).

Data set [5] deals with the molecule itself. Kind of data set: negative stain EM, 2D class averages and 3D maps; self-association of protomers (hexamer). The procedure: as §2, §3
Data set [6] concerns the molecule itself. The experiment in a line: negative stain EM, 2D class averages and 3D maps; self-association of protomers (heptamer). The procedure: as §2, §3

B1: HALC2_062 (other)
chain: MARVEYSYEKLNDTHYKLKLKVTYEYRKSPEARRLAEDLVQAFVDALSSLPFITVEYEVEEVEVE
notes: De novo designed protomer; the entry is one protomer and the pair is protomer with identical protomer (C2 homo-dimer)
Turning to B1, in data set [1], the binding result is given as “binds”.

B2: HALC20-5_308 (other)
chain: SLGWKVLLHLDLTWYPGADYTIDHDDMTRAARALAHGFERAAHSFAEAIGSTGSLGWKVLLHLDLTWYPGADYTIDHDDMTRAARALAHGFERAAHSFAEAIGSTGSLGWKVLLHLDLTWYPGADYTIDHDDMTRAARALAHGFERAAHSFAEAIGSTGSLGWKVLLHLDLTWYPGADYTIDHDDMTRAARALAHGFERAAHSFAEAIGSTG
notes: De novo designed protomer; pair is protomer with identical protomer (C20 internal symmetry, homo-pentamer); not shown: C-terminal His tag
For B2, the binding result in data set [2] is listed as “binds”.

B3: HALC15-5_262 (other)
chain: DVPLTDPKNLNEFLYALGEGLKGMKNLKKLTLTFPSNPLTIPGDISEGFRELGEGLKGMKNLEELTVTFNDVPLTDPKNLNEFLYALGEGLKGMKNLKKLTLTFPSNPLTIPGDISEGFRELGEGLKGMKNLEELTVTFNDVPLTDPKNLNEFLYALGEGLKGMKNLKKLTLTFPSNPLTIPGDISEGFRELGEGLKGMKNLEELTVTFN
notes: De novo designed protomer; pair is protomer with identical protomer (C15 internal symmetry, homo-pentamer); also called HALC5-15_262; HALC5-15 262; not shown: C-terminal His tag
Take B3: the binding result in data set [3] is “binds”.

B4: HALC4_135 (other)
chain: MEKFKEQLLEEVKKIVLETMTKVMEHLEKWFVTLAEIIITKSEEKLEELKETMEKSIEELRKEAE
notes: De novo designed protomer; pair is protomer with identical protomer (C4 homo-tetramer)
On to B4, for which, in data set [4], the binding result is on record as “binds”.

B5: HALC33-3_343 (other)
chain: PSNWPEVAKYFDLGKALKPIGEGLQNLKNLKHLDLSFSFSLELYPGLPSNWPEVAKYFDLGKALKPIGEGLQNLKNLKHLDLSFSFSLELYPGLPSNWPEVAKYFDLGKALKPIGEGLQNLKNLKHLDLSFSFSLELYPGLPSNWPEVAKYFDLGKALKPIGEGLQNLKNLKHLDLSFSFSLELYPGLPSNWPEVAKYFDLGKALKPIGEGLQNLKNLKHLDLSFSFSLELYPGLPSNWPEVAKYFDLGKALKPIGEGLQNLKNLKHLDLSFSFSLELYPGLPSNWPEVAKYFDLGKALKPIGEGLQNLKNLKHLDLSFSFSLELYPGLPSNWPEVAKYFDLGKALKPIGEGLQNLKNLKHLDLSFSFSLELYPGLPSNWPEVAKYFDLGKALKPIGEGLQNLKNLKHLDLSFSFSLELYPGLPSNWPEVAKYFDLGKALKPIGEGLQNLKNLKHLDLSFSFSLELYPGLPSNWPEVAKYFDLGKALKPIGEGLQNLKNLKHLDLSFSFSLELYPGL
notes: De novo designed protomer; pair is protomer with identical protomer (C33 internal symmetry, homo-trimer); not shown: C-terminal His tag
In the case of B5, in data set [3], the binding result is given as “binds”.

B6: HALC6_220 (other)
chain: PPIPPPSFKLEISPAFLELVQLVIDLHPNDEEVRKELIENLISRIGKSDNVPPETISLDISEAALELFEWIFEKFPDDEDVHRRLIESFINKRKFSSSSPLDTPSLDISERFIELVKYILEKYPEDEEIKQKLIDSLLNLLGSY
notes: De novo designed protomer; pair is protomer with identical protomer (C6 homo-hexamer); not shown: C-terminal His tag
For the protein B6, the binding result in data set [5] is recorded as “binds”.

B7: HALC3_109 (other)
chain: REEIEEAVKEAELKVLAIVLVALRSVSHYEPLSRLYESFLDALKKALSEEELKEVEKEAERIEKK
notes: De novo designed protomer; pair is protomer with identical protomer (C3 homo-trimer)
As to B7, the binding result in data set [4] is on record as “binds”.

B8: HALC2_068 (other)
chain: MIKVPEDLERIGRELRARGLDTKRLLEEGPKLYPELSIPDLMAIALYDHLNLDPEFLYRLLQQSR
notes: De novo designed protomer; pair is protomer with identical protomer (C2 homo-dimer)
In the case of B8, the binding result in data set [4] was “binds”.

B9: HALC3_104 (other)
chain: KRIDEIESKLKHLEEFTTHLIKLMETMLELLKLVSDGKSDSEEYKELLEKAEEYLKQATEAAKKI
notes: as for B7
Consider B9, for which the binding result in data set [4] is given as “binds”.

B10: HALC25-5_341 (other)
chain: EGAAIAENLATAYQGIGETLPSLQDLRVLHLSVIFSAEGSSPEGAAIAENLATAYQGIGETLPSLQDLRVLHLSVIFSAEGSSPEGAAIAENLATAYQGIGETLPSLQDLRVLHLSVIFSAEGSSPEGAAIAENLATAYQGIGETLPSLQDLRVLHLSVIFSAEGSSPEGAAIAENLATAYQGIGETLPSLQDLRVLHLSVIFSAEGSSP
notes: De novo designed protomer; pair is protomer with identical protomer (C25 internal symmetry, homo-pentamer); not shown: C-terminal His tag
On to B10, for which, in data set [2], the binding result was “binds”.

B11: HALC42-7_351 (other)
chain: PSLTLNDFGDLGKGLGEGLQGMENLEKLQLTITLKLTVSTPSLTLNDFGDLGKGLGEGLQGMENLEKLQLTITLKLTVSTPSLTLNDFGDLGKGLGEGLQGMENLEKLQLTITLKLTVSTPSLTLNDFGDLGKGLGEGLQGMENLEKLQLTITLKLTVSTPSLTLNDFGDLGKGLGEGLQGMENLEKLQLTITLKLTVSTPSLTLNDFGDLGKGLGEGLQGMENLEKLQLTITLKLTVST
notes: De novo designed protomer; pair is protomer with identical protomer (C42 internal symmetry, homo-heptamer); not shown: C-terminal His tag
Regarding B11, in data set [6], the binding result is given as “binds”.

B12: HALC24-6_316 (other)
chain: SKEKLGIQQDLFEGIIATLLSHKDPRVLYLMVTILKLTGSSPSKEKLGIQQDLFEGIIATLLSHKDPRVLYLMVTILKLTGSSPSKEKLGIQQDLFEGIIATLLSHKDPRVLYLMVTILKLTGSSPSKEKLGIQQDLFEGIIATLLSHKDPRVLYLMVTILKLTGSSP
notes: De novo designed protomer; pair is protomer with identical protomer (C24 internal symmetry, homo-hexamer); not shown: C-terminal His tag
With B12, in data set [5], the binding result is listed as “binds”.

(Values after patent US20240013853A1 (University of Washington, published 2024).)
